Measurements: PMC4793188, “Mechanism and inhibition of human UDP-GlcNAc 2-epimerase, the key enzyme in sialic acid biosynthesis” (Scientific Reports, 2016)

Key:
[1] = molecular target: the molecule itself; test: crystal structure; Se-Met protein incubated in 5 mM UDP-GlcNAc and 5 mM CMP-Neu5Ac for 16-18 h at 4 °C; crystals from 0.2 M ammonium acetate, 0.1 M HEPES pH 7.1, 19% PEG 3350; UDP and CMP-Neu5Ac bound; 2.7 Å; space group C2, four monomers in the asymmetric unit
[2] = molecular target: the molecule itself; test: SEC; gel filtration of the apo-enzyme; data not shown

B1: epimerase part of human GNE (UDP-GlcNAc 2-epimerase domain of the bifunctional UDP-GlcNAc 2-epimerase/ManNAc kinase) (domain or fragment)
chain: MEKNGNNRKLRVCVATCNRADYSKLAPIMFGIKTEPEFFELDVVVLGSHLIDDYGNTYRMIEQDDFDINTRLHTIVRGEDEAAMVESVGLALVKLPDVLNRLKPDIMIVHGDRFDALALATSAALMNIRILHIEGGEVSGTIDDSIRHAITKLAHYHVCCTRSAEQHLISMCEDHDRILLAGCPSYDKLLSAKNKDYMSIIRMWLGDDVKSKDYIVALQHPVTTDIKHSIKMFELTLDALISFNKRTLVLFPNIDAGSKEMVRVMRKKGIEHHPNFRAVKHVPFDQFIQLVAHAGCMIGNSSCGVREVGAFGTPVINLGTRQIGRETGENVLHVRDADTQDKILQALHLQFGKQYPCSKIYGDGNAVPRILKFLKSIDLQEPLQKKFCFPPVKENISQDIDHILE
modifications: selenomethionine (Se-Met enriched protein, used for the crystal structure)
notes: UDP-GlcNAc 2-epimerase domain (N-terminal epimerase part, ~400 aa) of human bifunctional UDP-GlcNAc 2-epimerase/ManNAc kinase (GNE, ~720 aa); Cloned into pET21a(+); dimer as apo-enzyme by gel filtration; also called 2-epimerase domain of GNE; recombinant human UDP-GlcNAc 2-epimerase; source: E. coli BL21 (DE3), purified (Ni-NTA, Superdex-200)
stoichiometry N [1]: 4
stoichiometry N [2]: 2
